Data published in publication PMC9482650, “Quantitative fragmentomics allow affinity mapping of interactomes” (Nature Communications, 2022).
Numbering of substitutions follows the chain as printed.

B1: KARS1, Q15046 (peptide)
chain: LESTTVGTSV
B2: FAM110B, Q8TC76 (peptide)
chain: ARESQKVSHV

The binders below were run against T1, APBA1_1, Q02410 (assay: holdup assay). Details: plain residues with an end cap or a label only (N-terminal biotin on a linker: ado-ado).
T1 sequence (Q02410 651-752, limits assumed, looked up): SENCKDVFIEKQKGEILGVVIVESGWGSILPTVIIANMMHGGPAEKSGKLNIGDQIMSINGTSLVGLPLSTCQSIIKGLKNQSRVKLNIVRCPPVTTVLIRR
Parameters: key: below the threshold = too weak to quantify, mostly under pKd 3.1 to 4

Binder | pKd
B1 | below the threshold
B2 | below the threshold

Each binder was assayed against T2, APBA1_2, Q02410 (assay: holdup assay). Details: plain residues with an end cap or a label only (N-terminal biotin on a linker: ado-ado).
T2 sequence (Q02410 742-832, limits assumed, looked up): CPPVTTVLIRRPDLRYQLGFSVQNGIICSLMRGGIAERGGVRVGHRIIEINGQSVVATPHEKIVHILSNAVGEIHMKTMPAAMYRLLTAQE
Parameters: key: below the threshold = too weak to quantify, mostly under pKd 3.1 to 4

Binder | pKd
B1 | 4.69
B2 | 4.41

Each binder was assayed against T3, APBA2_2, Q99767 (assay: holdup assay). Details: plain residues with an end cap or a label only (N-terminal biotin on a linker: ado-ado).
T3 sequence (Q99767 654-744, limits assumed, looked up): T2 sequence (Q02410 742-832, limits assumed, looked up) with R10K, R15K, P59A, H65Q, I66A, A70S, Y84F, A89G
Parameters: key: below the threshold = too weak to quantify, mostly under pKd 3.1 to 4

Binder | pKd
B1 | below the threshold
B2 | below the threshold

Each binder was assayed against T4, ARHGEF11, O15085 (assay: holdup assay). Details: plain residues with an end cap or a label only (N-terminal biotin on a linker: ado-ado).
T4 sequence (O15085 42-136, limits assumed, looked up): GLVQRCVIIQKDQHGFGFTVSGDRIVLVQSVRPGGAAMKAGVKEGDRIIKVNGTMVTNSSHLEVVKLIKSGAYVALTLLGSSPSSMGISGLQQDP
Parameters: key: below the threshold = too weak to quantify, mostly under pKd 3.1 to 4

Binder | pKd
B1 | 4.04
B2 | 4.19

What follows are binders tested against T5, DFNB31_1, Q9P202 (assay: holdup assay). Details: plain residues with an end cap or a label only (N-terminal biotin on a linker: ado-ado).
T5 sequence (Q9P202 135-233, limits assumed, looked up): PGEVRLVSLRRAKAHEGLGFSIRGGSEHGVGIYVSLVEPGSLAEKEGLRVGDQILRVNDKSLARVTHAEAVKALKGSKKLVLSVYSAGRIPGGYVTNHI
Parameters: key: below the threshold = too weak to quantify, mostly under pKd 3.1 to 4

Binder | pKd
B1 | 3.61
B2 | 3.62

The binders below were run against DLG2_3, Q15700 (assay: holdup assay). Details: plain residues with an end cap or a label only (N-terminal biotin on a linker: ado-ado).
Parameters: key: below the threshold = too weak to quantify, mostly under pKd 3.1 to 4

Binder | pKd
B1 | 4.23
B2 | 3.62

What follows are binders tested against T6, DLG3_3, Q92796 (assay: holdup assay). Details: plain residues with an end cap or a label only (N-terminal biotin on a linker: ado-ado).
T6 sequence (Q92796 374-475, limits assumed, looked up): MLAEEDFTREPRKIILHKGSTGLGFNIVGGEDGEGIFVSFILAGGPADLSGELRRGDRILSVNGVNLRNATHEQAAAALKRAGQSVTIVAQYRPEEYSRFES
Parameters: key: below the threshold = too weak to quantify, mostly under pKd 3.1 to 4

Binder | pKd
B1 | 3.6
B2 | below the threshold

What follows are binders tested against DLG5_1, Q8TDM6 (assay: holdup assay). Details: plain residues with an end cap or a label only (N-terminal biotin on a linker: ado-ado).
Parameters: key: below the threshold = too weak to quantify, mostly under pKd 3.1 to 4

DLG5_1, Q8TDM6, sequence (Q8TDM6 617-713): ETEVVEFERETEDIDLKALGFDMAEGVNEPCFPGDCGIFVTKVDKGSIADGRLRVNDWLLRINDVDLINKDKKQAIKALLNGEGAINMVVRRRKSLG

Binder | pKd
B1 | below the threshold
B2 | below the threshold

What follows are binders tested against GRID2IP_2, A4D2P6 (assay: holdup assay). Details: plain residues with an end cap or a label only (N-terminal biotin on a linker: ado-ado).
Parameters: key: below the threshold = too weak to quantify, mostly under pKd 3.1 to 4

GRID2IP_2, A4D2P6, sequence (A4D2P6 272-370): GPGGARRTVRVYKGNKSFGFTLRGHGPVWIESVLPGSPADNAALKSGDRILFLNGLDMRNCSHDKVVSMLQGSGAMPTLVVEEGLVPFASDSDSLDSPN

Binder | pKd
B1 | 4.06
B2 | 4.66

These binders were tested against T7, GRIP1_2, Q9Y3R0 (assay: holdup assay). Details: plain residues with an end cap or a label only (N-terminal biotin on a linker: ado-ado).
T7 sequence (Q9Y3R0 145-248, limits assumed, looked up): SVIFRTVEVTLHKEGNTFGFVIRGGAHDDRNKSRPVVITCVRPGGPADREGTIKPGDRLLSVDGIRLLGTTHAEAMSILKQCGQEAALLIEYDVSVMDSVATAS
Parameters: key: below the threshold = too weak to quantify, mostly under pKd 3.1 to 4

Binder | pKd
B1 | below the threshold
B2 | below the threshold

Each binder was assayed against T8, GRIP1_3, Q9Y3R0 (assay: holdup assay). Details: plain residues with an end cap or a label only (N-terminal biotin on a linker: ado-ado).
T8 sequence (Q9Y3R0 247-346, limits assumed, looked up): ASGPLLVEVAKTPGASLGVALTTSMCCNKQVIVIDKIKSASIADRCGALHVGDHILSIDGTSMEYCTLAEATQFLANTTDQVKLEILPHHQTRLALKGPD
Parameters: key: below the threshold = too weak to quantify, mostly under pKd 3.1 to 4

Binder | pKd
B1 | below the threshold
B2 | below the threshold

Each binder was assayed against T9, GRIP1_4, Q9Y3R0 (assay: holdup assay). Details: plain residues with an end cap or a label only (N-terminal biotin on a linker: ado-ado).
T9 sequence (Q9Y3R0 467-571, limits assumed, looked up): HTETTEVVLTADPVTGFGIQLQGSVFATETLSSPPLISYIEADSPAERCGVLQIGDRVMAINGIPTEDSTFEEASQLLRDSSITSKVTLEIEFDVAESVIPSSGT
Parameters: key: below the threshold = too weak to quantify, mostly under pKd 3.1 to 4

Binder | pKd
B1 | below the threshold
B2 | below the threshold

These binders were tested against GRIP2_5, Q9C0E4 (assay: holdup assay). Details: plain residues with an end cap or a label only (N-terminal biotin on a linker: ado-ado).
Parameters: key: below the threshold = too weak to quantify, mostly under pKd 3.1 to 4

GRIP2_5, Q9C0E4, sequence (Q9C0E4 544-642): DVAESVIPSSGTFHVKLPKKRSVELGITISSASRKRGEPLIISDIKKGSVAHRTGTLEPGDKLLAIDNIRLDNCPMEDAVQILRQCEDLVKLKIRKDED

Binder | pKd
B1 | below the threshold
B2 | below the threshold

Each binder was assayed against T10, HTRA4, P83105 (assay: holdup assay). Details: plain residues with an end cap or a label only (N-terminal biotin on a linker: ado-ado).
T10 sequence (P83105 378-476, limits assumed, looked up): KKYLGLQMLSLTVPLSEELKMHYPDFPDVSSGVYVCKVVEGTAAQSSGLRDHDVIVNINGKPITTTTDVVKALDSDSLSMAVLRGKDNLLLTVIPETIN
Parameters: key: below the threshold = too weak to quantify, mostly under pKd 3.1 to 4

Binder | pKd
B1 | below the threshold
B2 | 4.1

What follows are binders tested against IL16_1, Q14005 (assay: holdup assay). Details: plain residues with an end cap or a label only (N-terminal biotin on a linker: ado-ado).
Parameters: key: below the threshold = too weak to quantify, mostly under pKd 3.1 to 4

IL16_1, Q14005, sequence (Q14005 210-306): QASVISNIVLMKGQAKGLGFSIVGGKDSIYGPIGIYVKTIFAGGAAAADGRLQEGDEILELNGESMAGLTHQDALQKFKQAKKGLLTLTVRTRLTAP

Binder | pKd
B1 | 3.79
B2 | 4.17

What follows are binders tested against IL16_3, Q14005 (assay: holdup assay). Details: plain residues with an end cap or a label only (N-terminal biotin on a linker: ado-ado).
Parameters: key: below the threshold = too weak to quantify, mostly under pKd 3.1 to 4

IL16_3, Q14005, sequence (Q14005 1107-1207): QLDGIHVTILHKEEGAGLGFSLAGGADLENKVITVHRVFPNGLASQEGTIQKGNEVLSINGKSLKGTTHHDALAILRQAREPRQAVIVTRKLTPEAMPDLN

Binder | pKd
B1 | below the threshold
B2 | below the threshold

The binders below were run against Inadl_4, Q8NI35 (assay: holdup assay). Details: plain residues with an end cap or a label only (N-terminal biotin on a linker: ado-ado).
Parameters: key: below the threshold = too weak to quantify, mostly under pKd 3.1 to 4

Inadl_4, Q8NI35, sequence (Q8NI35 547-651): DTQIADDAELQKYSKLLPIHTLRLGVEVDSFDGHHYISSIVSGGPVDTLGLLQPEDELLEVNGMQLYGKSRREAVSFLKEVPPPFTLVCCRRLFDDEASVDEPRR

Binder | pKd
B1 | below the threshold
B2 | below the threshold

These binders were tested against MAST1, Q9Y2H9 (assay: holdup assay). Details: plain residues with an end cap or a label only (N-terminal biotin on a linker: ado-ado).
Parameters: key: below the threshold = too weak to quantify, mostly under pKd 3.1 to 4

MAST1, Q9Y2H9, sequence (Q9Y2H9 962-1065): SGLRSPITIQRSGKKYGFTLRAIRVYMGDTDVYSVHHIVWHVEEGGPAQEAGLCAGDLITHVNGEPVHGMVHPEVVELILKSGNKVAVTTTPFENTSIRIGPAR

Binder | pKd
B1 | 4.53
B2 | 4.13

The binders below were run against T11, MPP6, Q9NZW5 (assay: holdup assay). Details: plain residues with an end cap or a label only (N-terminal biotin on a linker: ado-ado).
T11 sequence (Q9NZW5 125-219, limits assumed, looked up): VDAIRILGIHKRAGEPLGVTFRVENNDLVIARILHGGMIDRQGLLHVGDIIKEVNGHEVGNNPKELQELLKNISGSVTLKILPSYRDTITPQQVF
Parameters: key: below the threshold = too weak to quantify, mostly under pKd 3.1 to 4

Binder | pKd
B1 | below the threshold
B2 | below the threshold

Each binder was assayed against T12, MPP7, Q5T2T1 (assay: holdup assay). Details: plain residues with an end cap or a label only (N-terminal biotin on a linker: ado-ado).
T12 sequence (Q5T2T1 134-230, limits assumed, looked up): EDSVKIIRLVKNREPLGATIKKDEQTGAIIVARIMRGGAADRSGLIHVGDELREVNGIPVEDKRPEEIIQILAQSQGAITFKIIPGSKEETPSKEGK
Parameters: key: below the threshold = too weak to quantify, mostly under pKd 3.1 to 4

Binder | pKd
B1 | below the threshold
B2 | below the threshold

Each binder was assayed against NHERF2_2, Q15599 (assay: holdup assay). Details: plain residues with an end cap or a label only (N-terminal biotin on a linker: ado-ado).
Parameters: key: below the threshold = too weak to quantify, mostly under pKd 3.1 to 4

NHERF2_2, Q15599, sequence (Q15599 142-238): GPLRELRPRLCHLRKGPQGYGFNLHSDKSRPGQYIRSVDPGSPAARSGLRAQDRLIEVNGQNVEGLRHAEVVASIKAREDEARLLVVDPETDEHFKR

Binder | pKd
B1 | below the threshold
B2 | below the threshold

Each binder was assayed against PARD3_3, Q8TEW0 (assay: holdup assay). Details: plain residues with an end cap or a label only (N-terminal biotin on a linker: ado-ado).
Parameters: key: below the threshold = too weak to quantify, mostly under pKd 3.1 to 4

PARD3_3, Q8TEW0, sequence (Q8TEW0 582-685): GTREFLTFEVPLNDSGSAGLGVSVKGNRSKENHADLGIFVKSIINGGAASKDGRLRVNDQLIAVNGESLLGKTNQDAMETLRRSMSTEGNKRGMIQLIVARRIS

Binder | pKd
B1 | below the threshold
B2 | below the threshold

The binders below were run against T13, PDZD7_3, Q9H5P4 (assay: holdup assay). Details: plain residues with an end cap or a label only (N-terminal biotin on a linker: ado-ado).
T13 sequence (Q9H5P4 857-944, limits assumed, looked up): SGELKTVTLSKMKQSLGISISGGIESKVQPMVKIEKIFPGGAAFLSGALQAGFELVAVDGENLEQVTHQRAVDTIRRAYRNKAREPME
Parameters: key: below the threshold = too weak to quantify, mostly under pKd 3.1 to 4

Binder | pKd
B1 | 3.82
B2 | 4.63

These binders were tested against T14, SNTG2, Q9NY99 (assay: holdup assay). Details: plain residues with an end cap or a label only (N-terminal biotin on a linker: ado-ado).
T14 sequence (Q9NY99 68-166, limits assumed, looked up): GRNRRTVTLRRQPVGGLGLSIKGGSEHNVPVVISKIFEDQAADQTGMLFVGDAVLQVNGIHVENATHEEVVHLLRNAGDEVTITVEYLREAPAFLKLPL
Parameters: key: below the threshold = too weak to quantify, mostly under pKd 3.1 to 4

Binder | pKd
B1 | below the threshold
B2 | 4.08
